The results in this text go back to the nanobody polyreactivity screen of Harvey et al. (2022).

The data set is described as follows: yeast display, Sf9 membrane polyspecificity reagent, FACS + sequencing; frameworks hold sequencing errors. Summed up:
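Nanobodies came from a synthetic yeast display library in Saccharomyces cerevisiae BJ5465, induced with galactose for 36–48 hours and stained for 1 hour at 4 °C with 10% biotinylated, detergent-solubilized Sf9 membrane reagent. Cells were enriched on streptavidin microbeads and then FACS-sorted, with low and high (top ~1%) gates set on anti-HA fluorescence for expression and streptavidin fluorescence for reagent binding. Each polyreactivity label reflects the gate a clone came from. Genes were amplified by colony PCR, sequenced by MiSeq 2 × 250 and filtered by CDR length.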
Consider “QVQLVESGGGLVQAGGILRLSCAASGFIFGYYGMGWYRQAPGKERELVAAISRSGGGTFYAVSVKGRFTISRDNAKNTVYLQMNSLKPEDTAVYYCNAKYYRKSGLSGAYPYYYWGQGTQVTVSS”, for which the “polyreactivity (PSR sort gate)” value is “high polyreactivity”. For “QVHLVESGGGIDQAGGSLRLSCAASGSTFTNNTMGWYRPAPGKERELVAGITKSGGSTYYADSVKGRFTISRDNAKKTVYLQMNSLKPEDTAVYYCATSTSRRYGSRHNYWGQGTQVTVSS”, the “polyreactivity (PSR sort gate)” value was “high polyreactivity”. Consider “QVQLVESGGGLVQAGGSLRLSCAASGRIFRYYAMGWYRQSPGKEREFVAAINWSGGSTYYADSVKGRITISRDNAKNTVYLQMNSLKREDTAVYYCAALITQSYDYWGQGSQVTVSS”, for which the “polyreactivity (PSR sort gate)” value is given as “high polyreactivity”. Turning to “QVQLVESGGGLVQAGGSLRLSCAASGSIFIGYAMGWYRQAPGKERELVAAITSGSITNYADSVKGRFTISRDNAKNTVYLQMNSLKPEDTAVYYCAADIYTYLGAYYIGYYWGQGTQVTVSS”, the “polyreactivity (PSR sort gate)” value was “low polyreactivity”. For “QVQLVESGGGLVQAGGSLRLSCAASGRRFVKYAMGWYRQAPGKERELVAAITKSGSSTYYSDSVKGRFTISRDNAKNTVYLQMNSLKPEDTAVYYCAALTISRSRTGYYWGQGTQVTVSS”, the “polyreactivity (PSR sort gate)” value was “low polyreactivity”.

For “QVQLVESAGGLVQAGGSLRLSCAASGIISRWYAMGWYRQAPGKERELVAAITRGGNTYYADSVKGRFTISRDNAKNTVYLQMNSLKPEDTAVYYCAARTPSRYLYFEYDYWGQGTQVTVSS”, the “polyreactivity (PSR sort gate)” value is “low polyreactivity”. Turning to “QVQLVESGGGLVQAGGSLRLTCAASGFTFDQYAMGWYRQEPGKERELVAAISFDGSSTYYADSVKGRFTISRDNAKNTVYLQMNSLKPEDTAVYYCNAAVRGYSSLYRYGYWGQGTQVTVSS”, the “polyreactivity (PSR sort gate)” value was “high polyreactivity”. For “QVQLVESGGGLVQAGGSLRLSCAASGSIFRPNTMGWYRQAPGKERELVAAINWSGDDTYYADSVKGRFTISRDNAKNTVYLQMNSLKPEDTAVYYCAVDLFDGVTKLNYDYWGQGTQVTVSS”, the “polyreactivity (PSR sort gate)” value was “low polyreactivity”.

In the case of “QVQLVESGGGLVQAGGSLRLSCAASGSIFFDNAMGWYRQAPGKERELVAAIDSSGGSTYYADSVKGRFTISRDNAKNTVYLQMNSLKPEDTAVYYCAREQYVPSPYSFFDEFEYWGQGTQVTVSS”, the “polyreactivity (PSR sort gate)” value is recorded as “low polyreactivity”. For “QVQLVESGGGLVQAGGSLRLSCAASGRTFGWNVMGWYRQAPGKERELVAAISGSGASTYYADSVKGRFTISRDNAKNTVYLQMNSLKPEDTAVYYCAAVQGYRFYEYYYWGQGTKVTVSS”, the “polyreactivity (PSR sort gate)” value is given as “low polyreactivity”. As for “QVQLVESGGGLVQAGGSLRLSCAASGSTFRFYALGWSRQAPGKERELVAAINGSGGSTYYADSVKGRFTISRDNAKNTVYLQMNSLKPEDTAVYYCAATYYILYTSWDEYWGQGTQVTVSS”, the “polyreactivity (PSR sort gate)” value is reported as “low polyreactivity”. For the sequence “QVQLVESGGGLVQAGGSLRLSCAASGSIFVGNAMGWYRQAPGKERELVAAISWSGGSTYYADSVKGRFTISRDNAKNTVYLQMNSLKPEDTAVYYCATQLSIRMDYWGQGTQVTVSS”, the “polyreactivity (PSR sort gate)” value was “high polyreactivity”.

On to “QVQLVESGGGLVQAGGSLRLSCGASGGIFIFYAMGWYRHAPGKERELVAAISNVSSTNYADSVKGRFTISRDNAKHTVYLEMNSLKPEDTAVYYCNAVGVPSEYYSWGQGTQVTVSS”, for which the “polyreactivity (PSR sort gate)” value was “low polyreactivity”.

Turning to “QVQLVESGGGLVQAGGSLRLSCAASGSIRVTNDMGWYRQATGKERELVAAITSIGGSTNYADSVKGRFTISRDNAKNPVYLQMNSLKPEDTAVYYCNVYLGILYKYDYWGQGTQVTVSS”, the “polyreactivity (PSR sort gate)” value was “low polyreactivity”. Take “QVQLVESGGGLVQAGGSLRLSCAASGSILGIKVMGWYRQAPGKERELVAAISRRGGSTYYADSVKGRFTISRDNAKNTVYLQMNSLKPEDTAVYYCAATRTARTMGYWGQGTQVTVSS”: the “polyreactivity (PSR sort gate)” value is recorded as “high polyreactivity”.

For “QVQLVESGGGLVQAGGSLRLSCAASGSILKNNAMGWYRLAPGKERELVAAITYSSGSTYYADSVKGRFTISRDNAKNTVYLQMNSLKPEDTAVYYCAAVYRYRYSFSGGYYWGQGTQVTVSS”, the “polyreactivity (PSR sort gate)” value is “low polyreactivity”.

Take “QVQLVESGGGLVQAGGSLRLSCAPSGYTFGKYAMGWYRHAPVKERELVATIRSGGSTNYADSVKGRFTISRDNAKNTVYLQMNSLKPEDTAVYYCNKRYRYQYGYDFWGQGTQVTVSS”: the “polyreactivity (PSR sort gate)” value is “high polyreactivity”. For the sequence “QHQLVESGGGLFQAGGSLRLSCAPSGSIIVWNAMGWYRQAPGKERELVASMTSGASTYYADSGKGRVTISRDNAKNTVYLQMNSLKPEDTAVYYCAAYYGYTDGWYLYSGYNYWGQGTQVTVSS”, the “polyreactivity (PSR sort gate)” value was “low polyreactivity”. Regarding “QVQLVESGGGLVQAGGSLRLSCAASGSTIFENVMGWYREAPRKEREFVAAINTSGRSTYYADSVKGRFTISRDNAKNTVFLQMNSLKPEDTAVDYCARDSYWEMDYWGQGTQVTVSS”, the “polyreactivity (PSR sort gate)” value is given as “low polyreactivity”.

For “QVQLVESGGGLVQAGGSLRLSCASSGSIFSHYAMGWYRQAPGKERELVAAISRSGGSTYYADSVKGRFTISRDNAKNTVYLQMNSLKPEDTAVYYCAKEGDSGDWFDYWGQGTQVTVSS”, the “polyreactivity (PSR sort gate)” value is on record as “low polyreactivity”.

As for “QVQLVESGGGLVQAGGSLRLSCAASGRTFAQYGMGWYRQAPGKERELVAAISRSGGRTYYADSVKGRFTISRDNAKNTVYLQMNSLKPEDTAVYYCAARAYLISSSTPFWTGYDSWGHGTQVTVSS”, the “polyreactivity (PSR sort gate)” value is “low polyreactivity”.

Consider “QVQLVESGGGLVQAGGSLRLSCAAYGFTFGVYALGWYRQAPGKERELVAAISRIGGRTYYADSLKGRYTISRDNAKNTVYVQMNSLKPEDTAVYYCAESPRQGMYYWGQGTQVTVSS”, for which the “polyreactivity (PSR sort gate)” value is “high polyreactivity”. Regarding “QVQLVESGGGLVQEGGSLRLSCAASGSIFLFYAMGWYRPAPGKERELVARITSSGGTTYYADSVKGRFTISRDNAKNTVYLQMNSLKPEDTAVYYCAAAYIRRSPYYYWGQGTQVTVSS”, the “polyreactivity (PSR sort gate)” value is recorded as “high polyreactivity”. As for “QVQLVESGGGLVQAGGSLRLSCAASGSIFFYYAMGWYRQAPGKERELVAAINWTGGRTYYADSVKGRFTISRDNAKNTVYLQMNSLKPEDTAVYYWAAEYYGQHDTYEYWGQGTQVTVSS”, the “polyreactivity (PSR sort gate)” value was “high polyreactivity”. For the sequence “QVQLVESGGGLVQAGGSLRLSCAASGFIFRWYAMGWYRPAPGKERELVASINWSGSRTNYADSVKGRFTISRDNAKNTVYLQMNSLKPEDTAVYYCNAYGGLQYDYWGQGTQVTVSS”, the “polyreactivity (PSR sort gate)” value is “high polyreactivity”. As for “QVQLVESGGGLVQAGGSLRLSCAASGFTFGLYGMGWYRQAPGKERELVAAISSSGGDTYYADSVKGRFTISRDNAKNTVYLQMNSLKPEDTAVYYCAADRLPQYDYWGQGTQVTVSS”, the “polyreactivity (PSR sort gate)” value is reported as “low polyreactivity”. As for “QVQLVESGGGLVQAGGSLRLSCADSGRTFTGYVMGWYRQAPGKEREFVAVIRYRGGGTYYAYSVKGRFTISRDNAKNTVYLQMNSLKPEDTAVYYCSARWRYSYVGDFDYWGQGTQVTVSS”, the “polyreactivity (PSR sort gate)” value is “high polyreactivity”. Take “QVQLVESGGGLVQAGGSLRLSCAASGLTFYYYDMGWYRQAPGKERELVAAITTDGSTNYADSVKGRFTISRDNAKNTVYLQMNSLKPEDTAVYYCAADKYYRYNYWGQGTQVTVSS”: the “polyreactivity (PSR sort gate)” value is given as “high polyreactivity”. On to “QVQLVESGGGLVQAGGSLRLSCAASGYTFRFNAMGWYRQAPGKEREFVAAIDFGGAGTYYADSVKGRFTISRDNATNTVYVQMNSLKPEDTAVYYCNARDGVTTEFDYWGQGTQVTVSS”, for which the “polyreactivity (PSR sort gate)” value is given as “low polyreactivity”.

On to “QVQLVESGGGLVQAGGSLRLSCAASGSTFPLYAMGWYRQAPGKERELVAAITGGGGRTYYADSVKGRFTISRDNAKNTVYLQMNSLKPEETAVYYCAASKQRYYRWWTTPGYDYWGQGTQVTVSS”, for which the “polyreactivity (PSR sort gate)” value is listed as “low polyreactivity”.

With “QVQLVESGGGLVQAGGSLRLSCAASGSTFRYNAMGWYRQAPGKERELVAGITSSGGTYADSVKGRFTISRDNAKNTVSLQMNSLKPEDTAVYSCAAEYNWYDYWGQGTQVTVSS”, the “polyreactivity (PSR sort gate)” value is “low polyreactivity”. As for “QVQLVESGGGLVQAGGSLRLSCAASGFIFGRYAMGWYRQAPGKERELVAAISKTGGRTYYADSVKGRFTISRDNAKNTVYLQMNSLKPEDTAVYYCAAVYKRGMDYWGQGTEVTVSS”, the “polyreactivity (PSR sort gate)” value is on record as “high polyreactivity”. In the case of “QVQLVESGGGLVQAGGSLRLSCAASGNTFWRYTMGWYRQAPGKERELVAAISSSGGSTYYADSVKGRFTISRDNAKNTVYLQMNSLKPEDTAVYYCAADSGSSRSRRGYEYWGQGTQVTVSS”, the “polyreactivity (PSR sort gate)” value is “high polyreactivity”.

“QVQLVESGGGLVQAGGSLRLSCAASGRTFRPYAMGWSRQAPGKERELVAAIDSSGTSTYYADSVKGRFTISRDNAKNTVYLQMNSLKPEDTAVYYCAKAWPDHWYSRYDYWGQGTQVTVSS”: the “polyreactivity (PSR sort gate)” value was “low polyreactivity”. Consider “QVQLVESGGGLVQAGGSLRLSCAASGRIFCGYAMGWYRQAPGKERELVAAITSGGRTYYADSVKGRFTISRDNAKNTVYLQMNSLKPEDTAVYYCAAVYVPYYWLGRSRGLDYWGQGTQVTVSS”, for which the “polyreactivity (PSR sort gate)” value is “high polyreactivity”.

“QVQLVESRGGLVQAGGSLRFSCAASGSTFRDYAMGGSRQAPGKERQVLAAISSTGGRTYYADSVKGRFTISRDNAKNTVYLQMNSLKPEDTAVYYCKAALYPSLDYGSASISKSYDYWGQGTQVTVSS”: the “polyreactivity (PSR sort gate)” value was “high polyreactivity”. Take “QVQLVESGGGLVQAGGSLRLSCAASGNMFGYYAMGWYRQAPGKERELVARITSGGTTNYADSVKGRFTISRDNAKNTVYLQMNRLKPEDTAVYYCNKDWRRYWLRGDYWGQGTQVTVSS”: the “polyreactivity (PSR sort gate)” value is given as “low polyreactivity”. On to “QVQLVESGGGLVQAGGSLRLSCAASGSTFHRYVMGWYRQAPGKERELVAVINSTGGSTYYADSVKGRFTISRDNAKNTVYLQMNSLKPEDNAVYYCARVTRRGPGYTTLYSRYDYWGQGTQVTVSS”, for which the “polyreactivity (PSR sort gate)” value was “low polyreactivity”.

In the case of “QVQLVESGGGLVQAGGSLRLSCAASGNIFTFNAMGWYRQAPGKERELVAAIRSGGSTNYADSVKGRFTISRDNAKNTVYLQMNSLKPEDTAVYYCAAKRYVQGYVYRYGYWGQGTQVTVSS”, the “polyreactivity (PSR sort gate)” value is given as “high polyreactivity”. For the sequence “QVQLVESGGGLVQAGGSLRLSCAASGSTFGGYAMGWYRQAPGKEWELVAAISWNGDSTYYADSVKGRFTISRDNAKNTVYLQMNSLKPEDTAVYYCAAPYSGPYRSYEYYWGQGTQVTVSS”, the “polyreactivity (PSR sort gate)” value is on record as “low polyreactivity”. Turning to “QVQLVESGGGLVQAGGSLRLSCAASGSTFTGYAMGWYRPAPGKESELVAAISISGGRTFYADSVKGRFTISRDNAKNTVYLQMNSLKPEDTSVYYCAVYRRGGVEAFLYWGQGTQVTVSS”, the “polyreactivity (PSR sort gate)” value is on record as “high polyreactivity”.
